Assay results: US20260258452, “RNA-GUIDED NUCLEASES AND ACTIVE FRAGMENTS AND VARIANTS THEREOF AND METHODS OF USE” (Life Edit Therapeutics, Inc., published 2026)

Key:
Test in all cases: cell_activity; PAM SEQ ID 116
Conditions in all cases: tags: N-terminal SV40 NLS and 3xFLAG, C-terminal nucleoplasmin NLS
APG02998 = target: T1, APG02998 (Enterococcus sp.)
T1 chain: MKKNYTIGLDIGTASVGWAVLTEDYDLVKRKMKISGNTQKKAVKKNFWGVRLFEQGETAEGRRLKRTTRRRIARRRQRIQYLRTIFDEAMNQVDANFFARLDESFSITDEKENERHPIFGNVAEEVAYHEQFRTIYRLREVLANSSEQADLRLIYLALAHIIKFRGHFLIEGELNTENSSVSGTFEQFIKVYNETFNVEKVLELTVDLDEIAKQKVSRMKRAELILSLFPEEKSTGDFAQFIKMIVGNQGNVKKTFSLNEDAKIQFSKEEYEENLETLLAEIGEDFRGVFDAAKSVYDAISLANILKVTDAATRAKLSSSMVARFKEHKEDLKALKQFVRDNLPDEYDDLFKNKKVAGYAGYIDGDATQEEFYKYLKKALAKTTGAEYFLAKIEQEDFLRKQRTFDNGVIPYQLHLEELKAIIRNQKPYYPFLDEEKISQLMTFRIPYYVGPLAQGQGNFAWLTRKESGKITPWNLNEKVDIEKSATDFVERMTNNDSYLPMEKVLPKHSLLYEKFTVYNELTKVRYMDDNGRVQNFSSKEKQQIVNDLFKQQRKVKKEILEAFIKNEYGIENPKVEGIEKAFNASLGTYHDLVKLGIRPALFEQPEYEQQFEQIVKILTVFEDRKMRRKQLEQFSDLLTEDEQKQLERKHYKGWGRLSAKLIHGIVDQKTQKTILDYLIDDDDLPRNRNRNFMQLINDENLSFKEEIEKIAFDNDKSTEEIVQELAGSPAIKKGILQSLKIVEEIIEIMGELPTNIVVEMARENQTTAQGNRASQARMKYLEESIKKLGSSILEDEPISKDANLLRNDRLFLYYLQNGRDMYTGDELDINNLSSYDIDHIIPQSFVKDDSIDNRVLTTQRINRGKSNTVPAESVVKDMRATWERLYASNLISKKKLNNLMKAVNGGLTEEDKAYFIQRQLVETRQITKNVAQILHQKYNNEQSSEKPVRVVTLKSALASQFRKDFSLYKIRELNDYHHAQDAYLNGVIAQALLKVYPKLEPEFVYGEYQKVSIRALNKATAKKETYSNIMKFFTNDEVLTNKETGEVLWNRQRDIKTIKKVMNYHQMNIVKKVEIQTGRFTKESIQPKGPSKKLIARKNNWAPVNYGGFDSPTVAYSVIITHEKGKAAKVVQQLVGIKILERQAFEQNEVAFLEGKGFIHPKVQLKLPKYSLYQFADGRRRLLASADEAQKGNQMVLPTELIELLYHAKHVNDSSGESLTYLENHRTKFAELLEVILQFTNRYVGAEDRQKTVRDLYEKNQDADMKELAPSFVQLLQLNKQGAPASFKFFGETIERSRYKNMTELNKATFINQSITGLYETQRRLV
Method: (§1) Additionally, products from PCR #2 containing Illumina overhang sequences underwent library preparation following the Illumina 16S Metagenomic Sequencing Library protocol. Deep sequencing was performed on an Illumina Mi-Seq platform by a service provider (MOGene). Typically, 200,000 of 250 bp paired-end reads (2×100,000 reads) are generated per amplicon. […] Output alignments were hand-curated to confirm insertion and deletion sites as well as identify microhomology sites at the recombination sites. All experiments were performed in human cells. The “target sequence” is the targeted sequence within the gene target. For each target sequence, the guide RNA comprised the complementary RNA target sequence and the appropriate sgRNA depending on the RGN used.

APG01868 = target: T2, APG01868 (Enterococcus sp.)
T2 chain: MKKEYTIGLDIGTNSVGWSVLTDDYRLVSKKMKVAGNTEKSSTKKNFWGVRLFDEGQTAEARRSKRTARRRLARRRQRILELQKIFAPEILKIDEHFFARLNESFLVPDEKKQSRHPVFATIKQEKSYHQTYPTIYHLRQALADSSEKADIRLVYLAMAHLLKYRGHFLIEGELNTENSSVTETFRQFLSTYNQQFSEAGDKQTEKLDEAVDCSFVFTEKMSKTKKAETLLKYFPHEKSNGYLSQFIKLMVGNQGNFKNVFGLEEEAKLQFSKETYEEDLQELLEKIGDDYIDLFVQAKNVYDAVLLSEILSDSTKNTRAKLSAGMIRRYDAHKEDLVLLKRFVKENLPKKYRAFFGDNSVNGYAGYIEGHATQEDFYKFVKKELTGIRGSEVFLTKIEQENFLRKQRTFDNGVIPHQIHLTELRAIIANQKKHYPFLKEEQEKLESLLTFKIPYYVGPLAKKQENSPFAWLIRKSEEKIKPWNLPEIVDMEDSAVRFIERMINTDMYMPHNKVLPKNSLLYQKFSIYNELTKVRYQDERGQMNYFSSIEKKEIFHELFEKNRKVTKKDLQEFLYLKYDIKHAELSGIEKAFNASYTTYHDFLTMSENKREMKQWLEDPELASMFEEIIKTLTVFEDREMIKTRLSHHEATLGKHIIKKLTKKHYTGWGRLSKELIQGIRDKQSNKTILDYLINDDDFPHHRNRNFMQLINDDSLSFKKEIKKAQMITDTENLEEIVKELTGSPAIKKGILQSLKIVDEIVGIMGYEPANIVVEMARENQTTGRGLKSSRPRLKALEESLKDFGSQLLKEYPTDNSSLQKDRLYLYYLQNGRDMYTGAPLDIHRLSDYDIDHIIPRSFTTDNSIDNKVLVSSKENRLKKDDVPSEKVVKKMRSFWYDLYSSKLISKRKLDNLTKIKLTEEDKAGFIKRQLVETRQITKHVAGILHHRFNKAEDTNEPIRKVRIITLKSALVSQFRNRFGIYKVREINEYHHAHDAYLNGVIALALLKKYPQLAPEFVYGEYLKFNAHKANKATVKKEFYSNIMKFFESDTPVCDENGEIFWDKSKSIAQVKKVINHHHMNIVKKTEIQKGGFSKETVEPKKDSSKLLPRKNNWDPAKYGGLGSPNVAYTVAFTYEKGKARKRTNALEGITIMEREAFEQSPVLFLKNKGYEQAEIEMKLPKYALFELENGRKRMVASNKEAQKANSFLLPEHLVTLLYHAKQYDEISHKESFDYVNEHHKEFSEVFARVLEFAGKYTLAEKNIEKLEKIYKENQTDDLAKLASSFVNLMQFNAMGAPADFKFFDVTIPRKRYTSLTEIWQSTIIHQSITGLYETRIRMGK
Method: as §1

APG07991 = target: T3, APG07991 (Enterococcus sp.)
T3 chain: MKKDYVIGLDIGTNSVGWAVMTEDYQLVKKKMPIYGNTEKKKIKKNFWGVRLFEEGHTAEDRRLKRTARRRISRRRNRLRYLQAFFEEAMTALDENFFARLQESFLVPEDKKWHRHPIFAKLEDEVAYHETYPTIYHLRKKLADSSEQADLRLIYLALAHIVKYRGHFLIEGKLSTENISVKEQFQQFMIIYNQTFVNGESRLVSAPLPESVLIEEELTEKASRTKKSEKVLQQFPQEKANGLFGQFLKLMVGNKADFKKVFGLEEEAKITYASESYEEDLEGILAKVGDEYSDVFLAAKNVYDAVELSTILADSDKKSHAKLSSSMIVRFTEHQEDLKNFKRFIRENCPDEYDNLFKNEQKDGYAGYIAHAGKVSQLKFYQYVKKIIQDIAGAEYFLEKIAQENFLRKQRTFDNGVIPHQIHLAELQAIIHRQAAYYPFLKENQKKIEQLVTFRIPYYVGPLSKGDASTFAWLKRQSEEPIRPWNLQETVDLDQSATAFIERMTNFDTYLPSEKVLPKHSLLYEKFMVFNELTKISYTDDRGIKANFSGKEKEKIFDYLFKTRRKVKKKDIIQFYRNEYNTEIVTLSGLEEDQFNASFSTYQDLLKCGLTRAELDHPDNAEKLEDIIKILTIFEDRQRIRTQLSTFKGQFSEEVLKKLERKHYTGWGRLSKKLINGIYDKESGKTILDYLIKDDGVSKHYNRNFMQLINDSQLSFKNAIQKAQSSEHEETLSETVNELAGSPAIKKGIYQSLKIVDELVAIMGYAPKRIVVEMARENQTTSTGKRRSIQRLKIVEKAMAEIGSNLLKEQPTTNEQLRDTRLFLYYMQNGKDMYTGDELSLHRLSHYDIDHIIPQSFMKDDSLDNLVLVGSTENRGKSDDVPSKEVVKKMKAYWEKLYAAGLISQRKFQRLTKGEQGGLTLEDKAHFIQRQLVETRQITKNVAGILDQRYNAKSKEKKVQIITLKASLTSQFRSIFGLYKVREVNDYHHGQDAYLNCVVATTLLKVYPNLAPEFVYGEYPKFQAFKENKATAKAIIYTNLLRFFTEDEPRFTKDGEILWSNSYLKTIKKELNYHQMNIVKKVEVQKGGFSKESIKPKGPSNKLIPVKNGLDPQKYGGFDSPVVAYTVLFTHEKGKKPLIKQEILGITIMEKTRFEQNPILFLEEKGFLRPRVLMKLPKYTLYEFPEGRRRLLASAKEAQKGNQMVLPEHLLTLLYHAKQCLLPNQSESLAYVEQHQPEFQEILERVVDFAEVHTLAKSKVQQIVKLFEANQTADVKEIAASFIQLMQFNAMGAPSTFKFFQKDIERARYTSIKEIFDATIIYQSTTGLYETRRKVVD
Method: as §1

B1: SGN001346 ; TRA target SGN001346 (ssRNA ; dsDNA)
RNA: UCUGUGGGACAAGAGGAUCAGUUUUAGAGCUAUGCAAAGGCAUAGCAAGUUAAAAUAAGGCUUAGUCCGUAAACAAACUUUGGCACUGUAUUCGGUGCUUUUUUU
DNA 1: TCTGTGGGACAAGAGGATCA
DNA 2: TGATCCTCTTGTCCCACAGA
activity (APG02998): 5.87 % editing

B2: SGN001317 ; RelA target SGN001317 (ssRNA ; dsDNA)
RNA: ACAGUGCGCAUCUCCCUGGUCACCAGUUUUAGAGCUAUGCAAAGGCAUAGCAAGUUAAAAUAAGGCUUUGUCCGUCAUCAGCUUUUUUAAAGCAGCGCUGUUCUCGGCGCUUUU
DNA 1: ACAGTGCGCATCTCCCTGGTCACCA
DNA 2: TGGTGACCAGGGAGATGCGCACTGT
activity (APG01868): 19.4 % editing

B3: SGN001357 ; HAO1 target SGN001357 (ssRNA ; dsDNA)
RNA: CAUUGAUACAAAUUAGCCGGGUUUUAGAGUCAUGUUGAAAGCAACAUAGCAAGUUAAAAUAAGGUUUUAACCGUAAUCAACUGUAAAGUGGCGCUGUUUCGGCGCUUUU
DNA 1: CATTGATACAAATTAGCCGG
DNA 2: CCGGCTAATTTGTATCAATG
activity (APG07991): 13.3 % editing

B4: SGN001320 ; RelA target SGN001320 (ssRNA ; dsDNA)
RNA: ACAGUGCGCAUCUCCCUGGUCACCAGUUUUAGAGCUAUGCAAAGGCAUAGCAAGUUAAAAUAAGGCUUAGUCCGUAAACAAACUUUGGCACUGUAUUCGGUGCUUUUUUU
DNA 1: ACAGTGCGCATCTCCCTGGTCACCA
DNA 2: TGGTGACCAGGGAGATGCGCACTGT
activity (APG02998): 3.48 % editing

B5: SGN001343 ; TRA target SGN001343 (ssRNA ; dsDNA)
RNA: UCUGUGGGACAAGAGGAUCAGUUUUAGAGCUAUGCAAAGGCAUAGCAAGUUAAAAUAAGGCUUUGUCCGUCAUCAGCUUUUUUAAAGCAGCGCUGUUCUCGGCGCUUUU
DNA 1: TCTGTGGGACAAGAGGATCA
DNA 2: TGATCCTCTTGTCCCACAGA
activity (APG01868): 41.4 % editing
